The target in assay [1] is T1, Human VEGF 165 (human, UniProt P15692 27-191).
T1 construct: mature; The 165-residue isoform without signal peptide; made in E. coli as in Simmons & Yansura 1996
The assay is described as follows: SPR (BIAcore-3000), apparent Kd from koff/kon, VEGF165 immobilised, 37 C. (In general: SPR reads the build-up and loss of mass on a sensor chip optically.)
Experimental: (§1) A CM-5 biosensor chip (Biacore, Inc.) was activated according to the manufacturer's instructions for amine coupling. […] Unreacted groups were blocked with 1 M ethanolamine. […] The kinetics of IgG variants binding to immobilized VEGF were measured with 2-fold serial dilutions beginning with 500 nM IgG in running buffer (PBS, 0.05% Tween, 0.01% sodium azide) at a flow rate of 20 μl/min (see FIG. 12). Binding measurements were carried out at 37° C. Regeneration of the chip after each cycle was with 20 mM HCl, followed by washing, an injection of 100 mM Tris pH 8.0, and additional washing.
(§2) The kinetic curves were fit to a 1:1 Langmuir binding model using BIAcore evaluation software version 3, which calculated association (kₒₙ) and dissociation (koff) rates. An apparent equilibrium constant, Kd, was calculated from koff/kₒₙ for each variant (Table 7).

Assay [2] deals with T1, Human VEGF 165. Kind of assay: SPR (BIAcore-3000), VEGF165 immobilised on CM-5 chip, IgG in solution, 37 C, 1:1 Langmuir fit.
Experimental: as §1, §2

T1 sequence (P15692 other isoform, or with tags, fused parts or gaps): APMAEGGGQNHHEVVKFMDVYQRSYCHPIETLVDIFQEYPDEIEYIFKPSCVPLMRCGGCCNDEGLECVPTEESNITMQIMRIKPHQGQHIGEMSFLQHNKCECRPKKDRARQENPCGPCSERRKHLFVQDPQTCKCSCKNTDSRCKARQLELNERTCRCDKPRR

B1: anti-VEGF antibody VNERK, full-length, wild type hinge, produced in E. coli (antibody, V domains shown)
VH: EVQLVESGGGLVQPGGSLRLSCAASGYTFTNYGINWVRQAPGKGLEWVGWINTYTGEPTYAADFKRRFTFSLDTSKSTAYLQMNSLRAEDTAVYYCAKYPHYYVNERKSHWYFDVWGQGTLVTVSS
VL: DIQLTQSPSSLSASVGDRVTITCSASQDISNYLNWYQQKPGKAPKVLIYFTSSLHSGVPSRFSGSGSGTDFTLTISSLQPEDFATYYCQQYSTVPWTFGQGTKVEIKR
notes: Full-length aglycosylated human IgG1 made in E. coli; also called VNERK wild type; VNERK hinge wild type
The term koff denotes the rate constant with which the complex falls apart. Usually kon stands for a measure of how fast the partners come together. A low value points to slow association. B1: in assay [1], the Kd was determined as 0.25 nM. In assay [2], this molecule gave a koff of 5.9e-06 s⁻¹ and an on-rate constant (kon) of 23000 M⁻¹ s⁻¹.
